Experimental findings from patent US20140038900A1 (INSTITUT NATIONAL DE LA SANTE ET DE LA RECHERCHE MEDICALE …, published 2014) are described below.

For the test, the target named is heat-shock protein 70 (HSP70) (UniProt P0DMV8 1-641). The test can be described thus: co-immunoprecipitation and Western blot, HCT116 cells. The protocol:
Transfected cells were first lysed in lysis buffer (50 mM Hepes (pH 7.6), 150 mM NaCl, 5 mM EDTA and 0.1% NP40) followed by immunoprecipitation using GFP-tag antibody. Immunoprecipitates were separated in a 10% SDS-polyacrylamide gel and then transferred to PVDF membranes using a wet transfer apparatus (BioRad, Hercules, Calif., USA). Membranes were first probed overnight using primary antibodies: HA-tag antibody was from Covance (Eurogentec, Angers, France), 14-3-3 from Santa-Cruz (TebuBio, Le Perray en Yvelines, France) and GFP-tag antibody from Millipore (Molsheim, France).

heat-shock protein 70 (HSP70), sequence (P0DMV8 whole entry): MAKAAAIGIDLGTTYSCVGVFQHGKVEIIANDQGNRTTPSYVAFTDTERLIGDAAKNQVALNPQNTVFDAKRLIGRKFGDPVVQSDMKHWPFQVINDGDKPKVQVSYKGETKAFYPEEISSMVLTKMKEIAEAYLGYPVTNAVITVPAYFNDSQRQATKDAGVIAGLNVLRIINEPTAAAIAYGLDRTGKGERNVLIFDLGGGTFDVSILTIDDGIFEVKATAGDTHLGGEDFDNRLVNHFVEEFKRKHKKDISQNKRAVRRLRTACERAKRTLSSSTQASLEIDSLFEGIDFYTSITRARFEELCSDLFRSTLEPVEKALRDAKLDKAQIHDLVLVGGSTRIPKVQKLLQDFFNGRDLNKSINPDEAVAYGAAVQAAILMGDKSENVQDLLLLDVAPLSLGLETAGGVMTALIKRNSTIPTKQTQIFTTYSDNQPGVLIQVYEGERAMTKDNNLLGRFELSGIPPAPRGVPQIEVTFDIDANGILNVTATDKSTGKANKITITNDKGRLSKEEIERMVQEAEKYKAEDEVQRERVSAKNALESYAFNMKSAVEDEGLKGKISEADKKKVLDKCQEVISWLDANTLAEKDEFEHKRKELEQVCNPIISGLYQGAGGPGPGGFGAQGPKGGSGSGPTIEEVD

B1: mutated HSP110 lacking exon 9 (HSP110delE9), GFP-tagged (other)
chain: MSVVGLDVGSQSCYIAVARAGGIETIANEFSDRCTPSVISFGSKNRTIGVAAKNQQITHANNTVSNFKRFHGRAFNDPFIQKEKENLSYDLVPLKNGGVGIKVMYMGEEHLFSVEQITAMLLTKLKETAENSLKKPVTDCVISVPSFFTDAERRSVLDAAQIVGLNCLRLMNDMTAVALNYGIYKQDLPSLDEKPRIVVFVDMGHSAFQVSACAFNKGKLKVLGTAFDPFLGGKNFDEKLVEHFCAEFKTKYKLDAKSKIRALLRLYQECEKLKKLMSSNSTDLPLNIECFMNDKDVSGKMNRSQFEELCAELLQKIEVPLYSLLEQTHLKVEDVSAVEIVGGATRIPAVKERIAKFFGKDISTTLNADEAVARGCALQC
notes: Made by PCR from the GFP-HSP110 vector and cloned into the EGFp C2 vector; also called HSP110deIE9; HSP110ΔE9; not shown: GFP tag from the EGFp C2 vector into which the mutant HSP110 cDNA was cloned
Turning to B1, the binding result was “no binding”.
